Laboratory results published in publication PMC6917717, “YtfK activates the stringent response by triggering the alarmone synthetase SpoT in Escherichia coli” (Nature Communications, 2019).

Molecular target: T1, SpoT catalytic domains (SpoT^1-378) (E. coli, UniProt P0AG24 1-378)
T1 construct: SpoT, E. coli, residues 1-378 (catalytic domains: hydrolase and synthetase); no cleavage is described; also called SpoT^1–378-6His; recombinant SpoT^1–378
Test: BLI; biotinylated YtfK (2.5 µM) on streptavidin biosensors; SpoT1-378 (5-80 µM) or RelA1-396 (40-120 µM) as analyte; BLItz, 25 °C; 50 mM Tris-HCl pH 8.0, 500 mM NaCl, 500 mM KCl, 2 mM β-mercaptoethanol, glycerol 2%, BSA 1 mg/ml; KD estimated from responses 10 s before the end of association, one-site fit
Conditions: both partners purified

T1 sequence (P0AG24 1-378): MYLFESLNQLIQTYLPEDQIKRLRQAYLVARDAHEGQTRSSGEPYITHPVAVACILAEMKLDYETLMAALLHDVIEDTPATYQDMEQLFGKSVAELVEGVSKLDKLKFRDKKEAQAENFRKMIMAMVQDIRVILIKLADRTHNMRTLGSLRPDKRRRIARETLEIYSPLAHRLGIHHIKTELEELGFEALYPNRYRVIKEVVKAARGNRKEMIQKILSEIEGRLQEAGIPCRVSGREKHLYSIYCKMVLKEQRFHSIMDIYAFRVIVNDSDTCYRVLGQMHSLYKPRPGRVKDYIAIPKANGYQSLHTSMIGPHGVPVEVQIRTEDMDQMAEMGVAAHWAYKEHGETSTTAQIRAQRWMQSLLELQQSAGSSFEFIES

- Kd: 35 µM
B1: YtfK, purified, biotinylated (natural protein)
chain: not shown
modifications: biotin (EZ-Link NHS-PEG4-Biotin, 1:1 ratio of YtfK and biotin)
notes: YtfK, E. coli; ytfK gene amplified from E. coli chromosomal DNA and cloned in pET28a+-TRX (thioredoxin-6his-tev); the TRX-6His-TEV cassette (NcoI/BamHI) lies upstream of ytfK (BamHI/HindIII), so residues from the TEV site and cloning site may remain at the N-terminus; also called Untagged YtfK; biotinylated YtfK
